± gives the uncertainty stated by the source.
Test: self-splicing fitness, log relative to wild type (ln ratio); higher = more splicing; Tetrahymena group I intron in knt gene, E. coli kanamycin selection, DiMSum; sequences stand for … in CUCUCU…GGAGGGAAAAGUUAUCAGGCAUGCACCUGGUAGCUAGUCUUUAAACCAAUAGAUUGCAUCGGUUUAAAAGGCAAGACCGUCAAAUUGCGGGAAAGGGGUCAACAGCCGUUCAGUACCAAGUCUCAGGGGAAACUUUGAGAUGGCCUUGCAAAGGGUAUGGUAAUAAGCUGACGGACAUGGUCCUAACCACGCAGCCAAGUCCUAAGUCAACAGAUCUUCUGUUGAUAUGGAUGCAGUUCACAGACUAAAUGUCGGUCGGGGAAGAUGUAUUCUUCUCAUAAGAUAUAGUCGGACCUCUCCUUAAUGGGAGCUAGCGGAUGAAGUGAUGCAACACUGGAGCCGCUGGGAACUAAUUUGUAUGCGAAAGUAUAUUGAUUAGUUUUGGAGUACUCGUGGUCG
Procedure, shortened: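 Six replicate transformations of E. coli BL21(DE3) with a pET-22b(+) library were grown overnight at 37°C or 30°C. The library randomised all eight P1ex-region intron nucleotides, the intron lying in the knt kanamycin-resistance gene, and plates were LB agar with or without 25 μg/mL kanamycin plus 100 μg/mL carbenicillin, 50 μM IPTG and 0.2% rhamnose. Pooled colonies were amplicon-sequenced on an Illumina HiSeq 2500, and fitness is the DiMSum error-weighted combination of wild-type-normalised replicate fold changes, kanamycin versus none.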

Sequence	self-splicing fitness (ln) (30 °C)	self-splicing fitness (ln) (37 °C)
GUUGAGCAAUAUUACGCCCU	-1 ± 0.19	0.108 ± 0.25
GUUGAGCAAUAUUACGCCUU	-2.32 ± 0.28	-1.78 ± 0.36
GUUGAGCAAUAUUACGGACU	-3.15 ± 0.24	-3.49 ± 0.34
GUUGAGCAAUAUUACGGCAC	-0.787 ± 0.17	-0.486 ± 0.2
GUUGAGCAAUAUUACGGGCU	-2.65 ± 0.26	-2.23 ± 0.49
GUUGAGCAAUAUUACGGGGG	-3.87 ± 0.31	-2.34 ± 0.25
GUUGAGCAAUAUUACGGUAU	-4.2 ± 0.23	-1.71 ± 0.13
GUUGAGCAAUAUUACGUAAA	-2.7 ± 0.2	-1.73 ± 0.19
GUUGAGCAAUAUUACGUAUG	-2.76 ± 0.34	-1.52 ± 0.29
GUUGAGCAAUAUUACGUUGC	-2.03 ± 0.42	
GUUUAGCAAUAUUACGAAGG	-2.93 ± 0.38	-1.37 ± 0.26
GUUUAGCAAUAUUACGAAUG	-1.2 ± 0.18	-0.733 ± 0.18
GUUUAGCAAUAUUACGACAA	-2.09 ± 0.21	-0.807 ± 0.19
GUUUAGCAAUAUUACGACGC	0.0175 ± 0.18	-0.0772 ± 0.24
GUUUAGCAAUAUUACGACGG	-2.88 ± 0.25	-3.5 ± 0.47
GUUUAGCAAUAUUACGAUCG	-1.61 ± 0.13	-0.512 ± 0.19
GUUUAGCAAUAUUACGAUGA	-2.41 ± 0.21	-1.39 ± 0.14
GUUUAGCAAUAUUACGCACG	-2.48 ± 0.44	
GUUUAGCAAUAUUACGCACU	-1.41 ± 0.15	-0.128 ± 0.15
GUUUAGCAAUAUUACGCCUA	-0.696 ± 0.28	-0.827 ± 0.4
GUUUAGCAAUAUUACGCGGA	-1.9 ± 0.24	-1.82 ± 0.37
GUUUAGCAAUAUUACGGCAC	-0.0568 ± 0.4	-0.227 ± 0.43
GUUUAGCAAUAUUACGGGAG	-1.44 ± 0.18	-1.83 ± 0.2
GUUUAGCAAUAUUACGGGCG	-0.544 ± 0.2	-1.38 ± 0.21
GUUUAGCAAUAUUACGGUGG		-2.33 ± 0.31

Sequence	self-splicing fitness (ln) (30 °C)	self-splicing fitness (ln) (37 °C)
GUUUAGCAAUAUUACGGUUC	-1.09 ± 0.12	-0.823 ± 0.15
GUUUAGCAAUAUUACGUAAC	-2.2 ± 0.29	-1.96 ± 0.39
GUUUAGCAAUAUUACGUAGA	-2.37 ± 0.15	-0.622 ± 0.2
GUUUAGCAAUAUUACGUCGU	-0.72 ± 0.21	-0.885 ± 0.21
GUUUAGCAAUAUUACGUGUA	-2.53 ± 0.092	-0.725 ± 0.077
GUUUAGCAAUAUUACGUGUU	-2.4 ± 0.13	-2.35 ± 0.14
GUUUAGCAAUAUUACGUUAA	-1.87 ± 0.33	-1.68 ± 0.24
UAAAAGCAAUAUUACGAAUG	-1.18 ± 0.067	0.0515 ± 0.081
UAAAAGCAAUAUUACGAAUU	-3.12 ± 0.15	-1.95 ± 0.18
UAAAAGCAAUAUUACGACGC	-2.67 ± 0.18	-0.32 ± 0.15
UAAAAGCAAUAUUACGACGG	0.0981 ± 0.087	-0.342 ± 0.13
UAAAAGCAAUAUUACGAGCA	-0.549 ± 0.088	-0.276 ± 0.1
UAAAAGCAAUAUUACGAGGC	-2.69 ± 0.34	-2.67 ± 0.36
UAAAAGCAAUAUUACGAUAU	-2.59 ± 0.1	-0.953 ± 0.1
UAAAAGCAAUAUUACGCGCG	-0.577 ± 0.087	0.0302 ± 0.11
UAAAAGCAAUAUUACGCUCU	-1.02 ± 0.12	-0.11 ± 0.14
UAAAAGCAAUAUUACGCUGU	-3.01 ± 0.23	-2.26 ± 0.2
UAAAAGCAAUAUUACGGACG	0.221 ± 0.11	0.00931 ± 0.13
UAAAAGCAAUAUUACGGAGG	-2.7 ± 0.17	-2.07 ± 0.16
UAAAAGCAAUAUUACGGGAU	-3.01 ± 0.27	-2.23 ± 0.18
UAAAAGCAAUAUUACGGUCU	-1.83 ± 0.076	-0.678 ± 0.079
UAAAAGCAAUAUUACGGUUA	0.139 ± 0.067	0.222 ± 0.079
UAAAAGCAAUAUUACGUACG	-0.745 ± 0.084	0.35 ± 0.12
UAAAAGCAAUAUUACGUCCC	-2.74 ± 0.32	-0.909 ± 0.24
UAAAAGCAAUAUUACGUCGG	-0.992 ± 0.097	-0.876 ± 0.12

Sequence	self-splicing fitness (ln) (30 °C)	self-splicing fitness (ln) (37 °C)
UAAAAGCAAUAUUACGUGCC	-2.01 ± 0.092	-1.26 ± 0.12
UAAAAGCAAUAUUACGUGCU	-2.62 ± 0.1	-1.56 ± 0.11
UAAAAGCAAUAUUACGUUCC	-3.46 ± 0.3	-2.57 ± 0.29
UAAAAGCAAUAUUACGUUGA	-2.41 ± 0.11	-1.46 ± 0.11
UAAAAGCAAUAUUACGUUUA	-1.14 ± 0.099	-0.871 ± 0.099
UAACAGCAAUAUUACGAACC	-2.12 ± 0.17	-1.73 ± 0.24
UAACAGCAAUAUUACGAACG	-0.391 ± 0.078	0.172 ± 0.11
UAACAGCAAUAUUACGACAU	-1.139 ± 0.011	-0.372 ± 0.032
UAACAGCAAUAUUACGAGUA	-0.835 ± 0.099	0.134 ± 0.099
UAACAGCAAUAUUACGAUGU	-2.73 ± 0.13	-2.08 ± 0.14
UAACAGCAAUAUUACGCACC	-2.33 ± 0.29	-1.88 ± 0.43
UAACAGCAAUAUUACGCCCC	-1.03 ± 0.28	-0.834 ± 0.47
UAACAGCAAUAUUACGCCGA	-1.95 ± 0.11	-0.415 ± 0.089
UAACAGCAAUAUUACGCCGU	-3.54 ± 0.24	-1.94 ± 0.19
UAACAGCAAUAUUACGCUCU	-1.12 ± 0.073	-0.498 ± 0.08
UAACAGCAAUAUUACGCUGC	-2.45 ± 0.3	-1.92 ± 0.28
UAACAGCAAUAUUACGGAUG	-1.51 ± 0.053	-0.304 ± 0.063
UAACAGCAAUAUUACGGGUG	-0.577 ± 0.049	-0.256 ± 0.068
UAACAGCAAUAUUACGGUAC	-3.84 ± 0.2	-2.06 ± 0.13
UAACAGCAAUAUUACGGUCG	-0.363 ± 0.04	-0.0859 ± 0.056
UAACAGCAAUAUUACGUAAG	-1.46 ± 0.07	-1.25 ± 0.084
UAACAGCAAUAUUACGUACA	-0.576 ± 0.071	-0.319 ± 0.092
UAACAGCAAUAUUACGUCCG	-0.0665 ± 0.086	0.0833 ± 0.12
UAACAGCAAUAUUACGUGCG	-0.551 ± 0.072	0.0501 ± 0.085
UAACAGCAAUAUUACGUGGA	-3.11 ± 0.14	-1.44 ± 0.08

Sequence	self-splicing fitness (ln) (30 °C)	self-splicing fitness (ln) (37 °C)
UAACAGCAAUAUUACGUUAC	-3.91 ± 0.2	-3.09 ± 0.24
UAAGAGCAAUAUUACGAAAU		-1.61 ± 0.32
UAAGAGCAAUAUUACGAAGU	-3.61 ± 0.31	-1.85 ± 0.41
UAAGAGCAAUAUUACGAAUC	-2.87 ± 0.29	-1.79 ± 0.35
UAAGAGCAAUAUUACGACGG	-3.85 ± 0.26	-2.54 ± 0.21
UAAGAGCAAUAUUACGAGAG	-2.23 ± 0.38	-1.95 ± 0.36
UAAGAGCAAUAUUACGAGCA	-3.18 ± 0.29	-0.84 ± 0.14
UAAGAGCAAUAUUACGAGGA	-3.37 ± 0.29	-2.25 ± 0.35
UAAGAGCAAUAUUACGAUGG	-3.51 ± 0.21	-1.68 ± 0.16
UAAGAGCAAUAUUACGAUGU	-4.13 ± 0.26	-1.82 ± 0.2
UAAGAGCAAUAUUACGCACA		-1.42 ± 0.33
UAAGAGCAAUAUUACGCCGC	-2.81 ± 0.41	
UAAGAGCAAUAUUACGCGUU		-2.04 ± 0.33
UAAGAGCAAUAUUACGCUUU	-2.81 ± 0.18	-1.85 ± 0.31
UAAGAGCAAUAUUACGUAAG	-3.02 ± 0.2	-2.1 ± 0.21
UAAGAGCAAUAUUACGUAUU	-4.58 ± 0.34	-2.02 ± 0.2
UAAGAGCAAUAUUACGUCAG	-3.04 ± 0.25	-2.33 ± 0.33
UAAGAGCAAUAUUACGUUAA	-3.21 ± 0.22	-2.3 ± 0.2
UAAGAGCAAUAUUACGUUCA	-1.29 ± 0.13	-0.735 ± 0.14
UAAGAGCAAUAUUACGUUUU	-3.31 ± 0.15	-3.27 ± 0.2
UAAUAGCAAUAUUACGACCG	-0.0649 ± 0.15	0.638 ± 0.17
UAAUAGCAAUAUUACGAUAG	-2.06 ± 0.27	-2.99 ± 0.38

Source: the supplement of paper PMC7877785
